Like-named read-outs stand apart in the source and are kept apart here. Ends that are not written are not given here.
How the values were obtained:
[1] = biological target: Factor X; assay: SPR
[2] = biological target: Factor X; assay: cross-linking
[3] = biological target: Factor X; assay: ELISA
[4] = biological target: Factor VIII light chain (A3C1C2 domains); assay: ELISA
[5] = biological target: Factor X; assay: cross-linking; remark: listed apart in the source
[6] = biological target: Factor X; assay: ELISA; remark: listed apart in the source
[7] = biological target: Factor X; assay: SPR; remark: listed apart in the source

Molecule	Kd [1] [nM]	other results
A3C1C2 subunit from FVIII variant Phe2014Ala (from UniProt P00451 1709-2351) (domain or fragment)	104	
A3C1C2 subunit from FVIII variant Thr2012Ala (from UniProt P00451 1709-2351) (domain or fragment)	85.8	
A3C1C2 subunit from FVIII variant Thr2012Ala/Leu2013Ala/Phe2014Ala (from UniProt P00451 1709-2351) (domain or fragment)	239	
A3C1C2 subunit from FVIII variant Thr2012Ala/Phe2014Ala (from UniProt P00451 1709-2351) (domain or fragment)	193	
Factor VIII light chain (A3C1C2 domains) (domain or fragment)	165	stoichiometry N [2]: 1; Kd [3]: 370 nM
Factor X (natural protein)		Kd [4]: 89.9 nM; Ki [4]: 154 nM
active site-modified activated protein C (DEGR-APC) (enzyme)		Ki [4]: 82.7 nM
HAGMSTLFLV (also: biotinylated, position not given here) [biotinylated 2007-2016 peptide]		stoichiometry N [5]: 1
HAGMSTLFLV [synthetic peptide corresponding to FVIII A3 residues 2007-2016]		Ki [6]: 152000 nM; percent inhibition of FVIII LC binding to FX at 800 μM peptide [6]: 80%; Kd [7]: 7700 nM

Further molecules by falling Kd [1], results first:

Kd [1] [nM]	Molecule	other results
63.9	A3C1C2 subunit from FVIII variant Leu2013Ala (from UniProt P00451 1709-2351) (domain or fragment)	
59.5	A3C1C2 subunit from FVIII variant Met2010Ala (from UniProt P00451 1709-2351) (domain or fragment)	
59.4	A3C1C2 subunit from FVIII variant Ser2011Ala (from UniProt P00451 1709-2351) (domain or fragment)	
57	A3C1C2 subunit from recombinant wild type FVIII (from UniProt P00451 1709-2351) (domain or fragment)	
55.7	A3C1C2 subunit from FVIII variant Val2016Ala (from UniProt P00451 1709-2351) (domain or fragment)	
45.1	A3C1C2 subunit from FVIII variant Leu2015Ala (from UniProt P00451 1709-2351) (domain or fragment)	

Source: paper PMC3298758
